From US20220119490A1 (Genentech, published 2022)

Target: T1, MDGA1 (human, UniProt Q8NFP4, biotinylated)
T1 construct: extracellular domain; also called MAM domain-containing glycosylphosphatidylinositol anchor protein 1; soluble query
T1 sequence (soluble query ectodomain, looked up): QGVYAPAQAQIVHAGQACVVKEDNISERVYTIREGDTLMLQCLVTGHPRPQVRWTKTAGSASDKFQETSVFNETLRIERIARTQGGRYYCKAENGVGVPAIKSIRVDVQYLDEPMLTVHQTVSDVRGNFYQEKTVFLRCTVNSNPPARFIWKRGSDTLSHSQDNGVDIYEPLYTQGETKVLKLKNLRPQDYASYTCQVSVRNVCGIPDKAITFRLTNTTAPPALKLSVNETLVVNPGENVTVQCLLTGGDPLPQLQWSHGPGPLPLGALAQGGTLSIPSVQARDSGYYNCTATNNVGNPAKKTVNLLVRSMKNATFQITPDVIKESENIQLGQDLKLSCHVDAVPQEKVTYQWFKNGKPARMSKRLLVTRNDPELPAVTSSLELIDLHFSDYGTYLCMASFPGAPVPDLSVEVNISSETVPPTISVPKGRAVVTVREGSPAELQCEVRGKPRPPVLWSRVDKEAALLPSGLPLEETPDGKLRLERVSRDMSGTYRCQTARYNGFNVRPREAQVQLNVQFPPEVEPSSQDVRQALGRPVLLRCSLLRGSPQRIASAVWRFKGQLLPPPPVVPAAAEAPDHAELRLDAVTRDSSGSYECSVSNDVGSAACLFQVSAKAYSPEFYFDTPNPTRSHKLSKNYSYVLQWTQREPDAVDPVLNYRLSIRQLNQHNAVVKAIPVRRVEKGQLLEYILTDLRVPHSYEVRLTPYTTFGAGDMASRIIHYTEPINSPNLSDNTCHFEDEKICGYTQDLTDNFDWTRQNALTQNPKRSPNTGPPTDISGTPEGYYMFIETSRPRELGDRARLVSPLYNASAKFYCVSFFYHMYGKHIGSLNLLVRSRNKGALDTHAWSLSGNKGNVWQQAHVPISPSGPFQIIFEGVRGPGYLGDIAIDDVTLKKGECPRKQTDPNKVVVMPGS
Assay: cell surface interaction assay: query ECD tetramerised with fluorescent streptavidin on transfected cells, immunofluorescence

B1: NLGN3 (receptor, human, UniProt Q9NZ94 38-848, looked up)
cell-surface-expressed binding partner: QAPAPTVNTHFGKLRGARVPLPSEILGPVDQYLGVPYAAPPIGEKRFLPPEPPPSWSGIRNATHFPPVCPQNIHTAVPEVMLPVWFTANLDIVATYIQEPNEDCLYLNVYVPTEDVKRISKECARKPNKKICRKGGSGAKKQGEDLADNDGDEDEDIRDSGAKPVMVYIHGGSYMEGTGNMIDGSILASYGNVIVITLNYRVGVLGFLSTGDQAAKGNYGLLDQIQALRWVSENIAFFGGDPRRITVFGSGIGASCVSLLTLSHHSEGLFQRAIIQSGSALSSWAVNYQPVKYTSLLADKVGCNVLDTVDMVDCLRQKSAKELVEQDIQPARYHVAFGPVIDGDVIPDDPEILMEQGEFLNYDIMLGVNQGEGLKFVEGVVDPEDGVSGTDFDYSVSNFVDNLYGYPEGKDTLRETIKFMYTDWADRDNPETRRKTLVALFTDHQWVEPSVVTADLHARYGSPTYFYAFYHHCQSLMKPAWSDAAHGDEVPYVFGVPMVGPTDLFPCNFSKNDVMLSAVVMTYWTNFAKTGDPNKPVPQDTKFIHTKANRFEEVAWSKYNPRDQLYLHIGLKPRVRDHYRATKVAFWKHLVPHLYNLHDMFHYTSTTTKVPPPDTTHSSHITRRPNGKTWSTKRPAISPAYSNENAQGSWNGDQDAGPLLVENPRDYSTELSVTIAVGASLLFLNVLAFAALYYRKDKRRQEPLRQPSPQRGAGAPELGAAPEEELAALQLGPTHHECEAGPPHDTLRLTALPDYTLTLRRSPDDIPLMTPNTITMIPNSLVGLQTLHPYNTFAAGFNSTGLPHSHSTTRV
notes: expressed on cells; also called NLGN3 expressed on cells
B1: binds.
